Laboratory results published in the supplement of paper PMC10724198.
± gives the standard deviation of the averaged measurements.

Legend:
Experiment in all cases: protein stability index of tFT-peptide fusion (C-terminal peptide) (PSI (0-1 scale)); higher = more stable (slower turnover)
Saccharomyces cerevisiae [1] = conditions: temperature: 30 C
Experimental: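 MPS profiling in S. cerevisiae of the yeast C-terminome library: the last 12 aa of each annotated ORF are fused to the C-terminus of a sfGFP-mCherry timer, after a GGGS linker. Cells are FACS-sorted into 8 mCherry/sfGFP bins and deep-sequenced. PSI runs from 0 (unstable) to 1 (stable); wild type and das1Δ backgrounds, two technical replicates each.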

Saccharomyces cerevisiae [2] = tested on: Saccharomyces cerevisiae
Experimental: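 MPS profiling in S. cerevisiae of the tFT-X12 degron library: putative degron peptides plus stable controls, 12 aa, fused to the C-terminus of a sfGFP-mCherry timer. Cells are FACS-sorted into 8 mCherry/sfGFP bins and deep-sequenced. PSI runs from 0 (unstable) to 1 (stable). Backgrounds are wild type, das1Δ and doa10Δ at 30 °C, and wild type, das1Δ, cdc34-1 and cdc53-1 at 37 °C; 2-3 technical replicates each.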

Saccharomyces cerevisiae [3] = conditions: genetic background: wild type; temperature: 30 C
[4] = genetic background: das1 deletion
[5] = genetic background: cdc34-1, temperature: 37 C
[6] = genetic background: cdc53-1, temperature: 37 C
[7] = genetic background: das1 deletion, temperature: 30 C
[8] = genetic background: das1 deletion, temperature: 37 C
[9] = genetic background: doa10 deletion, temperature: 30 C
[10] = genetic background: wild type, temperature: 30 C
[11] = genetic background: wild type, temperature: 37 C

| Sequence | protein stability index (Saccharomyces cerevisiae [1]; [4]) | protein stability index (Saccharomyces cerevisiae [1]; genetic background: wild type) | protein stability index (Saccharomyces cerevisiae [2]; [5]) | protein stability index (Saccharomyces cerevisiae [2]; [6]) | protein stability index (Saccharomyces cerevisiae [2]; [7]) | protein stability index (Saccharomyces cerevisiae [2]; [8]) | protein stability index (Saccharomyces cerevisiae [2]; [9]) | protein stability index (Saccharomyces cerevisiae [2]; [10]) | protein stability index (Saccharomyces cerevisiae [2]; [11]) | protein stability index (Saccharomyces cerevisiae [3]) |
| --- | --- | --- | --- | --- | --- | --- | --- | --- | --- | --- |
| AATNNLFIFSAL [CDC55 C-terminal 12 aa] | 0.732 ± 0.0084 | 0.713 ± 0.073 |  |  |  |  |  |  |  |  |
| ACHMAKPLKLPT [YHR032C-A C-terminal 12 aa] | 0.679 ± 0.017 | 0.673 ± 0.029 |  |  |  |  |  |  |  |  |
| ACILMAISQFNS [KSH1 C-terminal 12 aa] | 0.619 ± 0.013 | 0.6333 ± 0.0061 |  |  |  |  |  |  |  |  |
| ADESKKEITTGR [MPC2 C-terminal 12 aa] | 0.714 ± 0.022 | 0.653 ± 0.018 |  |  |  |  |  |  |  |  |
| AEFFTKFDELVV [EHT1 C-terminal 12 aa] | 0.6616 ± 0.0027 | 0.666 ± 0.045 |  |  |  |  |  |  |  |  |
| AEKRDALLKEDA [RPL19A C-terminal 12 aa] | 0.6845 ± 0.0059 | 0.699 ± 0.0074 |  |  |  |  |  |  |  |  |
| AFIFGNYKDILT [RGA1 C-terminal 12 aa] | 0.755 ± 0.01 | 0.7204 ± 0.0034 |  |  |  |  |  |  |  |  |
| AHNFKVPETSKG [PAN2 C-terminal 12 aa] | 0.696 ± 0.032 | 0.677 ± 0.022 |  |  |  |  |  |  |  |  |
| AHQKEILHSVSN [YML6 C-terminal 12 aa] | 0.695 ± 0.016 | 0.726 ± 0.034 |  |  |  |  |  |  |  |  |
| AITLAWLAHALT [YHL037C C-terminal 12 aa] | 0.4375 ± 0.0012 | 0.39 ± 0.011 |  |  |  |  |  |  |  |  |
| AITSAQELLDSK [RBL2 C-terminal 12 aa] | 0.687 ± 0.024 | 0.72 ± 0.0079 |  |  |  |  |  |  |  |  |
| AKFFIPFSHSSP [YPL185W C-terminal 12 aa] | 0.729 ± 0.01 | 0.705 ± 0.051 |  |  |  |  |  |  |  |  |
| AKTKFCCCIPFK [YOR376W-A C-terminal 12 aa] | 0.7168 ± 0.0059 | 0.721 ± 0.078 |  |  |  |  |  |  |  |  |
| ALDAEKYLTSLE [TRR1 C-terminal 12 aa] | 0.707 ± 0.0079 | 0.695 ± 0.031 |  |  |  |  |  |  |  |  |
| ALDAERYLSAQE [TRR2 C-terminal 12 aa] | 0.698 ± 0.025 | 0.672 ± 0.015 |  |  |  |  |  |  |  |  |
| ALFKAAGGKIKK [YLF2 C-terminal 12 aa] | 0.6703 ± 0.0023 | 0.66 ± 0.011 |  |  |  |  |  |  |  |  |
| ALHLLTKFTHII [SBH2 C-terminal 12 aa] | 0.733 ± 0.012 | 0.167 ± 0.043 |  |  |  |  |  |  |  |  |
| ALKKAARQVKKE [IFA38 C-terminal 12 aa] | 0.71 ± 0.0074 | 0.6713 ± 0.0036 |  |  |  |  |  |  |  |  |
| ALNRSAIIKDDK [DDP1 C-terminal 12 aa] | 0.703 ± 0.0071 | 0.708 ± 0.01 |  |  |  |  |  |  |  |  |
| ALPLPDEDDADL [GSP1 C-terminal 12 aa] | 0.673 ± 0.02 | 0.715 ± 0.011 |  |  |  |  |  |  |  |  |
| VPSPWLIRSLMS |  |  | 0.648 ± 0.024 | 0.687 ± 0.019 | 0.643 ± 0.037 | 0.716 ± 0.026 | 0.224 ± 0.0045 | 0.278 ± 0.026 | 0.518 ± 0.039 | 0.409 ± 0.023 |
| VQLFCLRREMII |  |  | 0.544 ± 0.025 | 0.609 ± 0.009 | 0.503 ± 0.027 | 0.583 ± 0.043 | 0.335 ± 0.0084 | 0.365 ± 0.019 | 0.506 ± 0.013 | 0.381 ± 0.0047 |
| VRELGVGGWRRQ |  |  | 0.58 ± 0.08 | 0.7 ± 0.0064 | 0.619 ± 0.016 | 0.752 ± 0.004 | 0.11 ± 0.012 | 0.129 ± 0.012 | 0.405 ± 0.0063 | 0.283 ± 0.01 |
| VRLLLIFRLLVI |  |  | 0.463 ± 0.0077 | 0.539 ± 0.013 | 0.417 ± 0.039 | 0.551 ± 0.0066 | 0.2909 ± 0.0022 | 0.267 ± 0.038 | 0.447 ± 0.02 | 0.299 ± 0.09 |
| VRNYWKYVVIFP |  |  | 0.624 ± 0.0047 | 0.711 ± 0.023 | 0.617 ± 0.0079 | 0.7338 ± 0.0065 | 0.578 ± 0.011 | 0.569 ± 0.023 | 0.674 ± 0.068 | 0.569 ± 0.15 |
| VSCFIVSFWVFL |  |  | 0.389 ± 0.0086 | 0.461 ± 0.033 | 0.355 ± 0.02 | 0.546 ± 0.008 | 0.309 ± 0.034 | 0.323 ± 0.031 | 0.495 ± 0.052 | 0.471 ± 0.012 |
| VSFEFSVLWTVF |  |  | 0.548 ± 0.073 | 0.592 ± 0.028 | 0.515 ± 0.022 | 0.574 ± 0.029 | 0.384 ± 0.016 | 0.383 ± 0.017 | 0.469 ± 0.005 | 0.46 ± 0.018 |
| VSLCVVYGLVVG |  |  | 0.337 ± 0.024 | 0.377 ± 0.022 | 0.29 ± 0.029 | 0.446 ± 0.015 | 0.2523 ± 0.0025 | 0.289 ± 0.022 | 0.411 ± 0.0082 | 0.373 ± 0.017 |
| VSLIFCLFFLSC |  |  | 0.424 ± 0.0047 | 0.502 ± 0.044 | 0.402 ± 0.018 | 0.52 ± 0.0063 | 0.395 ± 0.024 | 0.404 ± 0.027 | 0.492 ± 0.027 | 0.442 ± 0.013 |
| VSTVCLDFSPFL |  |  | 0.692 ± 0.065 | 0.7662 ± 0.0043 | 0.65 ± 0.018 | 0.781 ± 0.017 | 0.668 ± 0.0078 | 0.66 ± 0.007 | 0.73714 ± 5.4e-05 | 0.755 ± 0.043 |
